From US20250262210A1 (TRUSTEES OF COLUMBIA UNIVERSITY IN THE CITY OF NEW YORK, published 2025)

How the values were obtained:
LZTR1 R810W-FLAG = biological target: T1, LZTR1 R810W-FLAG (human, UniProt Q8N653 1-840); experiment: IP/MS, LZTR1 R810W-FLAG, U87
T1 construct: Stably expressed in U87 cells by lentivirus; also called LZTR1-FLAG-R810W; LZTR1 RW; not shown: FLAG tag
T1 sequence (looked up): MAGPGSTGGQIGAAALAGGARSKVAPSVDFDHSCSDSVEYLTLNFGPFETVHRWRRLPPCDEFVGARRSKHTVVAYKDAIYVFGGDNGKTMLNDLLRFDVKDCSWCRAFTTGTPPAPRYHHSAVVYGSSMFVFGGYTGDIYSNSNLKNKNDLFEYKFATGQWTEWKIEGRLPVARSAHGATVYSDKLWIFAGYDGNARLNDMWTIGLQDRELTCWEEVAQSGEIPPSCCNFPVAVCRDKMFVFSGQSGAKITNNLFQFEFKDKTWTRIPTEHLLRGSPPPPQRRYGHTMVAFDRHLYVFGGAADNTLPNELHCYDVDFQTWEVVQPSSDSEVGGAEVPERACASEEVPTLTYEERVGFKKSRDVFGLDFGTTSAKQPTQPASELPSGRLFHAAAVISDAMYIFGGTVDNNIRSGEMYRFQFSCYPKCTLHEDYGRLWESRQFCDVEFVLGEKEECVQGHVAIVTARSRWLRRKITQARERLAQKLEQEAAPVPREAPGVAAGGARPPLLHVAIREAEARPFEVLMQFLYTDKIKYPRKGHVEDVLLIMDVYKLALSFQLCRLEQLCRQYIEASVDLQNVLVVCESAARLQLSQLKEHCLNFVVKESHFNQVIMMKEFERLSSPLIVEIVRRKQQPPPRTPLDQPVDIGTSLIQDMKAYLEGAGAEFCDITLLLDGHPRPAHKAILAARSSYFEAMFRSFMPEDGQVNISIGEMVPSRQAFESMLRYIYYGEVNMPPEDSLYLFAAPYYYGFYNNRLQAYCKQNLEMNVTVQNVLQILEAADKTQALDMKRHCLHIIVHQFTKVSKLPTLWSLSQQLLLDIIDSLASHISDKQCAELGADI
Outline: (§1)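 Read-out: spectral counts from LC-MS/MS (Orbitrap Fusion) after MaxQuant identification. Variable modifications were Met oxidation, protein N-terminal acetylation and N/Q deamidation.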

LZTR1-FLAG = biological target: T2, LZTR1-FLAG (human, UniProt Q8N653 1-840); experiment: IP/MS, LZTR1 wild type-FLAG, U87
T2 construct: Expressed in HEK 293T, HeLa or U87 cells; used as cell lysate; also called LZTR1 wild type-FLAG; LZTR1 WT; not shown: FLAG tag at the C-terminus
T2 sequence (looked up): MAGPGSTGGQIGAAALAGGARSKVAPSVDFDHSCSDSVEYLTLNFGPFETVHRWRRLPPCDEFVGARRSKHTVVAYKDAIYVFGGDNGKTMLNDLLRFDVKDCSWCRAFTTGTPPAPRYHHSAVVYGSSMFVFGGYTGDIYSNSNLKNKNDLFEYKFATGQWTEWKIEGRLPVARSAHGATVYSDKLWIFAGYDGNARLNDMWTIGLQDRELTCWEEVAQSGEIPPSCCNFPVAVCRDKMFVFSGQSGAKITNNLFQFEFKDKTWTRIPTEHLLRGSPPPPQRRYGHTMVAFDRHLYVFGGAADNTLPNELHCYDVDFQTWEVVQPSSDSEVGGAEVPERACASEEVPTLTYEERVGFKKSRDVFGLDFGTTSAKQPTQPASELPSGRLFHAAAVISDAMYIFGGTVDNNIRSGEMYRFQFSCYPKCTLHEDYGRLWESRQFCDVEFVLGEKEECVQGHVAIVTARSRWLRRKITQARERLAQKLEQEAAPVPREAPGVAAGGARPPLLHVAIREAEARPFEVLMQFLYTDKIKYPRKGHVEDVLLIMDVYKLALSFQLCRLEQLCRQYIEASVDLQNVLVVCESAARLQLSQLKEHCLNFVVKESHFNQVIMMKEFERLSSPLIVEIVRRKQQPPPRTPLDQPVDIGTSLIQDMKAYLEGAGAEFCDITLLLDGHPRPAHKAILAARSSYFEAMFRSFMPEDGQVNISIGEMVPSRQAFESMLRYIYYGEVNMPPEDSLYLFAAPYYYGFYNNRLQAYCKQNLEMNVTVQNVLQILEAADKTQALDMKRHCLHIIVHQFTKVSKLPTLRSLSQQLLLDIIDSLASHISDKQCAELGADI
Outline: as §1

B1: VPS51 (other, human, UniProt Q9UID3 2-782, looked up)
chain: AAAAAAGPSPGSGPGDSPEGPEGEAPERRRKAHGMLKLYYGLSEGEAAGRPAGPDPLDPTDLNGAHFDPEVYLDKLRRECPLAQLMDSETDMVRQIRALDSDMQTLVYENYNKFISATDTIRKMKNDFRKMEDEMDRLATNMAVITDFSARISATLQDRHERITKLAGVHALLRKLQFLFELPSRLTKCVELGAYGQAVRYQGRAQAVLQQYQHLPSFRAIQDDCQVITARLAQQLRQRFREGGSGAPEQAECVELLLALGEPAEELCEEFLAHARGRLEKELRNLEAELGPSPPAPDVLEFTDHGGSGFVGGLCQVAAAYQELFAAQGPAGAEKLAAFARQLGSRYFALVERRLAQEQGGGDNSLLVRALDRFHRRLRAPGALLAAAGLADAATEIVERVARERLGHHLQGLRAAFLGCLTDVRQALAAPRVAGKEGPGLAELLANVASSILSHIKASLAAVHLFTAKEVSFSNKPYFRGEFCSQGVREGLIVGFVHSMCQTAQSFCDSPGEKGGATPPALLLLLSRLCLDYETATISYILTLTDEQFLVQDQFPVTPVSTLCAEARETARRLLTHYVKVQGLVISQMLRKSVETRDWLSTLEPRNVRAVMKRVVEDTTAIDVQVGLLYEEGVRKAQSSDSSKRTFSVYSSSRQQGRYAPSYTPSAPMDTNLLSNIQKLFSERIDVFSPVEFNKVSVLTGIIKISLKTLLECVRLRTFGRFGLQQVQVDCHFLQLYLWRFVADEELVHLLLDEVVASAALRCPDPVPMEPSVVEVICERG
B1: binds (LZTR1 R810W-FLAG); binds (LZTR1-FLAG).

B2: YME1L1 (other, human, UniProt Q96TA2 1-773, looked up)
chain: MFSLSSTVQPQVTVPLSHLINAFHTPKNTSVSLSGVSVSQNQHRDVVPEHEAPSSECMFSDFLTKLNIVSIGKGKIFEGYRSMFMEPAKRMKKSLDTTDNWHIRPEPFSLSIPPSLNLRDLGLSELKIGQIDQLVENLLPGFCKGKNISSHWHTSHVSAQSFFENKYGNLDIFSTLRSSCLYRHHSRALQSICSDLQYWPVFIQSRGFKTLKSRTRRLQSTSERLAETQNIAPSFVKGFLLRDRGSDVESLDKLMKTKNIPEAHQDAFKTGFAEGFLKAQALTQKTNDSLRRTRLILFVLLLFGIYGLLKNPFLSVRFRTTTGLDSAVDPVQMKNVTFEHVKGVEEAKQELQEVVEFLKNPQKFTILGGKLPKGILLVGPPGTGKTLLARAVAGEADVPFYYASGSEFDEMFVGVGASRIRNLFREAKANAPCVIFIDELDSVGGKRIESPMHPYSRQTINQLLAEMDGFKPNEGVIIIGATNFPEALDNALIRPGRFDMQVTVPRPDVKGRTEILKWYLNKIKFDQSVDPEIIARGTVGFSGAELENLVNQAALKAAVDGKEMVTMKELEFSKDKILMGPERRSVEIDNKNKTITAYHESGHAIIAYYTKDAMPINKATIMPRGPTLGHVSLLPENDRWNETRAQLLAQMDVSMGGRVAEELIFGTDHITTGASSDFDNATKIAKRMVTKFGMSEKLGVMTYSDTGKLSPETQSAIEQEIRILLRDSYERAKHILKTHAKEHKNLAEALLTYETLDAKEIQIVLEGKKLEVR
B2: binds (LZTR1 R810W-FLAG); binds (LZTR1-FLAG).

B3: ZC3HC1 (other, human, UniProt Q86WB0 2-502, looked up)
chain: AAPCEGQAFAVGVEKNWGAVVRSPEGTPQKIRQLIDEGIAPEEGGVDAKDTSATSQSVNGSPQAEQPSLESTSKEAFFSRVETFSSLKWAGKPFELSPLVCAKYGWVTVECDMLKCSSCQAFLCASLQPAFDFDRYKQRCAELKKALCTAHEKFCFWPDSPSPDRFGMLPLDEPAILVSEFLDRFQSLCHLDLQLPSLRPEDLKTMCLTEDKISLLLHLLEDELDHRTDERKTTIKLGSDIQVHVTACILSVCGWACSSSLESMQLSLITCSQCMRKVGLWGFQQIESSMTDLDASFGLTSSPIPGLEGRPERLPLVPESPRRMMTRSQDATFSPGSEQAEKSPGPIVSRTRSWDSSSPVDRPEPEAASPTTRTRPVTRSMGTGDTPGLEVPSSPLRKAKRARLCSSSSSDTSSRSFFDPTSQHRDWCPWVNITLGKESRENGGTEPDASAPAEPGWKAVLTILLAHKQSSQPAETDSMSLSEKSRKVFRIFRQWESLCSC
B3: binds (LZTR1 R810W-FLAG); binds (LZTR1-FLAG).
